Laboratory results: the supplement of paper PMC12338614
± gives the uncertainty stated by the source.

B1: library; numbered along this chain (parent)
chain: MEVVDPQQLGMFTEGELMSVGMDTFIHRIDSTEVIYQPRRKRAKLIGKYLMGDLLGEGSYGKVKEVLDSETLCRRAVKILKKKKLRRIPNGEANVKKEIQLLRRLRHKNVIQLVDVLYNEEKQKMYMVMEYCVCGMQEMLDSVPEKRFPVCQAHGYFCQLIDGLEYLHSQGIVHKDIKPGNLLLTTGGTLKISDLGVAEALHPFAADDTCRTSQGSPAFQPPEIANGLDTFSGFKVDIWSAGVTLYNITTGLYPFEGDNIYKLFENIGKGSYAIPGDCGPPLSDLLKGMLEYEPAKRFSIRQIRQHSWFRKKHPPAEAPVPIPPSPDTKDRWRSMTVVPYLEDLHGADEDEDLFDIEDDIIYTQDFTVPGQVPEEEASHNGQRRGLPKAVCMNGTEAAQLSTKSRAEGRAPNPARKACSASSKIRRLSACKQQ

Variants of: B1
Assay: STK11 functional score (HeLa growth suppression), rescaled enrichment; synonymous median = 1, nonsense median = 0 (normalised score)
Settings: with HeLa; variant type: missense
Method in brief: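 In HeLa, Bxb1 integrated POPCode codon-randomised libraries of codon-optimised STK11 at an AAVS1 landing pad; three regions were each transfected three times. Integrants, marked as BFP-negative and mCherry-positive, were FACS-sorted 4–5 days after electroporation and expanded for about two weeks before tiled gDNA amplicons were sequenced on NextSeq (~2 million reads per tile). Each functional score is a post/pre-selection log ratio corrected to wild type, rescaled to the synonymous and nonsense medians, and merged across codons and replicate transfections, with error estimated by bootstrapping.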
Q305G showed an STK11 functional score of 1.52 ± 0.3.
Work on V34C yielded an STK11 functional score of 0.884 ± 0.4.
L50I was tested, and the STK11 functional score was 1.62 ± 0.099.
Variant D176L has an STK11 functional score of -0.164 ± 0.061.
E223G showed an STK11 functional score of 0.169 ± 0.077.
G47S gave an STK11 functional score of 1.62 ± 0.59.
Variant F366P has an STK11 functional score of 1.62 ± 0.14.
Work on F366S yielded an STK11 functional score of 1.58 ± 0.13.
For E291R, the STK11 functional score was 1.53 ± 0.18.
Variant E291Q has an STK11 functional score of 1.36 ± 0.41.
I356E gave an STK11 functional score of 1.62 ± 0.14.
I356D was tested, and the STK11 functional score was 1.27 ± 0.43.
For R409V, the STK11 functional score was 1.22 ± 0.21.
Work on V20D yielded an STK11 functional score of 1.59 ± 0.14.
Work on K388Q yielded an STK11 functional score of 1.21 ± 0.43.
Variant K287R has an STK11 functional score of 0.533 ± 0.14.
For P203R, the STK11 functional score was 1.01 ± 0.65.
P203L was tested, and the STK11 functional score was 1.27 ± 0.73.
For A93G, the STK11 functional score was 0.685 ± 0.085.
Variant G394Q has an STK11 functional score of 1.35 ± 0.35.
Variant G394D has an STK11 functional score of 1.32 ± 0.1.
For K416C, the STK11 functional score was 1.14 ± 0.2.
Q170F was tested, and the STK11 functional score was 0.834 ± 0.45.
Q170S showed an STK11 functional score of 0.916 ± 0.13.
For K191C, the STK11 functional score was 0.0918 ± 0.27.
In the case of T71C, the STK11 functional score is reported as 1.33 ± 0.5.
H379L gave an STK11 functional score of 1.09 ± 0.32.
H379S gave an STK11 functional score of 1.55 ± 0.27.
E351Q gave an STK11 functional score of 1.28 ± 0.6.
For E351D, the STK11 functional score was 0.951 ± 0.63.
C151M was tested, and the STK11 functional score was 0.331 ± 0.57.
Y49F gave an STK11 functional score of 1.12 ± 0.3.
In the case of W239L, the STK11 functional score is reported as 0.325 ± 0.1.
For W239D, the STK11 functional score was -0.00743 ± 0.45.
Variant W239T has an STK11 functional score of -0.0973 ± 0.1.
Variant F231R has an STK11 functional score of 1.26 ± 0.52.
K64A was tested, and the STK11 functional score was 1.59 ± 0.31.
P144R showed an STK11 functional score of 0.996 ± 0.22.
Work on P144L yielded an STK11 functional score of 0.658 ± 0.083.
F204W showed an STK11 functional score of 1.3 ± 0.13.
In the case of Q432R, the STK11 functional score is reported as 1.6 ± 0.16.
With C158G the STK11 functional score was 0.418 ± 0.096.
Work on R426N yielded an STK11 functional score of 1.58 ± 0.27.
Work on Q159P yielded an STK11 functional score of 0.757 ± 0.17.
Q159H gave an STK11 functional score of 0.00983 ± 0.14.
P281N showed an STK11 functional score of 1.66 ± 0.19.
P281M gave an STK11 functional score of 1.31 ± 0.21.
In the case of P281S, the STK11 functional score is reported as 0.965 ± 0.17.
Work on D352N yielded an STK11 functional score of 1.09 ± 0.8.
I248T was tested, and the STK11 functional score was 1.15 ± 0.2.
F234Y showed an STK11 functional score of 0.805 ± 0.64.
E16L was tested, and the STK11 functional score was 1.15 ± 0.29.
T402K showed an STK11 functional score of 1.3 ± 0.1.
G61S gave an STK11 functional score of 0.916 ± 0.13.
N94P showed an STK11 functional score of 1.21 ± 0.64.
E293F gave an STK11 functional score of 1.07 ± 0.11.
E293T showed an STK11 functional score of 1.3 ± 0.31.
Variant S232M has an STK11 functional score of 0.515 ± 0.49.
Y156S gave an STK11 functional score of 0.762 ± 0.14.
In the case of E317M, the STK11 functional score is reported as 0.316 ± 0.21.
With E121L the STK11 functional score was 1.43 ± 0.23.
With E65R the STK11 functional score was 0.846 ± 0.099.
E256F gave an STK11 functional score of 0.982 ± 0.22.
For G155R, the STK11 functional score was 0.742 ± 0.4.
C132M showed an STK11 functional score of 1.35 ± 0.73.
Variant D348N has an STK11 functional score of 0.723 ± 0.63.
K269Y was tested, and the STK11 functional score was 1.33 ± 0.36.
T395G showed an STK11 functional score of 1.49 ± 0.32.
Variant T395R has an STK11 functional score of 1.58 ± 0.28.
Variant T395K has an STK11 functional score of 0.547 ± 0.29.
In the case of T395V, the STK11 functional score is reported as 1.04 ± 0.19.
S404D gave an STK11 functional score of 1.18 ± 0.3.
S404E showed an STK11 functional score of 1.34 ± 0.5.
With L341D the STK11 functional score was 1.6 ± 0.17.
L341G was tested, and the STK11 functional score was 1.46 ± 0.18.
T209I gave an STK11 functional score of 0.703 ± 0.26.
T209E was tested, and the STK11 functional score was 1.17 ± 0.18.
Work on Q100A yielded an STK11 functional score of 0.571 ± 0.42.
For G276E, the STK11 functional score was 1.57 ± 0.32.
For G276C, the STK11 functional score was 1.2 ± 0.65.
In the case of V372H, the STK11 functional score is reported as 1.61 ± 0.23.
With E374C the STK11 functional score was 1.51 ± 0.19.
With E374D the STK11 functional score was 0.971 ± 0.47.
Work on E374S yielded an STK11 functional score of 1.46 ± 0.33.
S421Y gave an STK11 functional score of 1.61 ± 0.12.
Work on S421I yielded an STK11 functional score of 1.52 ± 0.13.
H107Y was tested, and the STK11 functional score was 0.262 ± 0.079.
In the case of D359C, the STK11 functional score is reported as 1.14 ± 0.33.
E165T gave an STK11 functional score of 0.129 ± 0.15.
Variant K82I has an STK11 functional score of 1.3 ± 0.54.
Work on D277V yielded an STK11 functional score of 1.23 ± 0.17.
For S31G, the STK11 functional score was 1.57 ± 0.12.
Variant S31M has an STK11 functional score of 0.857 ± 0.12.
For S31F, the STK11 functional score was 0.829 ± 0.12.
For Q220C, the STK11 functional score was 1.18 ± 0.45.
Q220H showed an STK11 functional score of 0.87 ± 0.2.
Q220D was tested, and the STK11 functional score was 0.747 ± 0.32.
E145M showed an STK11 functional score of 1.3 ± 0.13.
Y272A was tested, and the STK11 functional score was 1.33 ± 0.22.
D284C was tested, and the STK11 functional score was 0.513 ± 0.086.
G91S gave an STK11 functional score of 0.833 ± 0.096.
Variant S213H has an STK11 functional score of 1.68 ± 0.18.
Variant S213P has an STK11 functional score of 1.32 ± 0.26.
Variant L85V has an STK11 functional score of 1.15 ± 0.15.
With K329M the STK11 functional score was 1.55 ± 0.15.
D194I showed an STK11 functional score of -0.258 ± 0.083.
For Y131S, the STK11 functional score was 1.18 ± 0.22.
Work on Y131C yielded an STK11 functional score of 0.51 ± 0.24.
I192C gave an STK11 functional score of 1.43 ± 0.27.
I192F gave an STK11 functional score of 1.13 ± 0.53.
L386H showed an STK11 functional score of 0.959 ± 0.14.
Variant C134T has an STK11 functional score of 1.61 ± 0.28.
For C134Q, the STK11 functional score was 0.746 ± 0.38.
L290G gave an STK11 functional score of 0.0144 ± 0.1.
W308A showed an STK11 functional score of 0.0826 ± 0.26.
In the case of S216W, the STK11 functional score is reported as -0.0568 ± 0.11.
In the case of S216G, the STK11 functional score is reported as 0.926 ± 0.23.
N412V was tested, and the STK11 functional score was 1.33 ± 0.2.
Work on K312W yielded an STK11 functional score of 1.53 ± 0.14.
K312R showed an STK11 functional score of 1.57 ± 0.17.
Q137P was tested, and the STK11 functional score was 1.19 ± 0.32.
V3I was tested, and the STK11 functional score was 1.06 ± 0.43.
For V3M, the STK11 functional score was 0.72 ± 0.44.
In the case of V3S, the STK11 functional score is reported as 1.35 ± 0.17.
P339S showed an STK11 functional score of 1.42 ± 0.2.
For T250K, the STK11 functional score was 0.0557 ± 0.22.
With D208T the STK11 functional score was 1.04 ± 0.2.
In the case of L182C, the STK11 functional score is reported as 1.17 ± 0.16.
R301F gave an STK11 functional score of 1.55 ± 0.22.
Work on G270M yielded an STK11 functional score of 0.994 ± 0.46.
In the case of S325R, the STK11 functional score is reported as 1.58 ± 0.2.
N393E gave an STK11 functional score of 1.48 ± 0.16.
For E265L, the STK11 functional score was 1.18 ± 0.42.
T249H showed an STK11 functional score of 1.64 ± 0.2.
Work on G251T yielded an STK11 functional score of 1.21 ± 0.25.
Work on G251E yielded an STK11 functional score of 0.412 ± 0.098.
A414E was tested, and the STK11 functional score was 1.54 ± 0.14.
A205C showed an STK11 functional score of 1.25 ± 0.39.
Work on A205D yielded an STK11 functional score of 1.33 ± 0.46.
With L54P the STK11 functional score was 1.21 ± 0.18.
With L54V the STK11 functional score was 0.645 ± 0.14.
For R211G, the STK11 functional score was 1.51 ± 0.2.
For P217E, the STK11 functional score was 0.536 ± 0.41.
For L17G, the STK11 functional score was 1.53 ± 0.25.
P6G gave an STK11 functional score of 0.386 ± 0.15.
For L201H, the STK11 functional score was 1.16 ± 0.3.
H202R was tested, and the STK11 functional score was 0.161 ± 0.26.
With S422G the STK11 functional score was 1.49 ± 0.26.
V150G gave an STK11 functional score of 0.594 ± 0.14.
Variant L102T has an STK11 functional score of 0.0689 ± 0.37.
I111F showed an STK11 functional score of 0.365 ± 0.45.
I238F showed an STK11 functional score of 0.0789 ± 0.1.
With H168F the STK11 functional score was 0.851 ± 0.51.
Variant H168Y has an STK11 functional score of 0.357 ± 0.26.
For L160F, the STK11 functional score was 0.36 ± 0.21.
L160Q gave an STK11 functional score of 0.000621 ± 0.18.
L160I was tested, and the STK11 functional score was 1.17 ± 0.12.
L184S was tested, and the STK11 functional score was 0.61 ± 0.13.
For S142M, the STK11 functional score was 0.933 ± 0.16.
Variant S142D has an STK11 functional score of 1.52 ± 0.39.
For S142H, the STK11 functional score was 1.44 ± 0.24.
N226I was tested, and the STK11 functional score was 0.495 ± 0.48.
For A377R, the STK11 functional score was 1.6 ± 0.26.
In the case of S401K, the STK11 functional score is reported as 1.44 ± 0.28.
S401P gave an STK11 functional score of 1.07 ± 0.67.
Variant E396F has an STK11 functional score of 1.41 ± 0.2.
Variant V338C has an STK11 functional score of 0.965 ± 0.28.
